From patent publication US20240052042A1 (Novartis, published 2024)
Residue numbers refer to the chain shown, from its start.

Experiments:
[1] = target: T1, human NPR1 on CHO-K1 cells in the presence of ANP (human, UniProt P01160 124-151); experiment: flow cytometry, hNPR1 CHO-K1 cells, IgG
T1 construct: also called hNPR1 CHO K1 + 100 nM ANP
T1 sequence: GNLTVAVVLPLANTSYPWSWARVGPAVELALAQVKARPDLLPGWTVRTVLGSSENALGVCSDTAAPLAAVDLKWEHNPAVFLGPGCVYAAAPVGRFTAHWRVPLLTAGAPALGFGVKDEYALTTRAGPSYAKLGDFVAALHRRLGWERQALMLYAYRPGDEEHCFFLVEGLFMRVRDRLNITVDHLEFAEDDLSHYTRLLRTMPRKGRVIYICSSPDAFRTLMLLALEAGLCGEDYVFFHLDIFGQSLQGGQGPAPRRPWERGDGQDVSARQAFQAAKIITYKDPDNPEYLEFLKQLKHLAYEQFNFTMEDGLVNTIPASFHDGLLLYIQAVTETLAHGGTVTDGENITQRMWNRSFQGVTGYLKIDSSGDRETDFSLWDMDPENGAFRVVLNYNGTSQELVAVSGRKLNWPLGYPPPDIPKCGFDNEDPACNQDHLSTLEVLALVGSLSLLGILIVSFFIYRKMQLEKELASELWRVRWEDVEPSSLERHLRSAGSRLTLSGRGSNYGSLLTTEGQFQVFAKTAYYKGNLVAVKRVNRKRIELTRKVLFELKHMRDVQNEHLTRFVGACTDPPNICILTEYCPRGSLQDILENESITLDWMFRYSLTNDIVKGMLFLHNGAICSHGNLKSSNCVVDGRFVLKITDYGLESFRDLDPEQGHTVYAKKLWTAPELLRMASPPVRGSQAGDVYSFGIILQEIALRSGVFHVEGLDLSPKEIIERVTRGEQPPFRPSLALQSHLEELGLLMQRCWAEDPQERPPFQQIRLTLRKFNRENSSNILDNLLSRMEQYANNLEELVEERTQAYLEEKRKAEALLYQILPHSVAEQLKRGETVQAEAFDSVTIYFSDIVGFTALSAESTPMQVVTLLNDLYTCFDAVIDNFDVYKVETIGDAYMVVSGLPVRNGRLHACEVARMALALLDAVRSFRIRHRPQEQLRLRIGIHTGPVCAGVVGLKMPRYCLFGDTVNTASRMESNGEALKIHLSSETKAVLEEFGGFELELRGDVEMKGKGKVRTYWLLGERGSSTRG
T1 sequence (peptide): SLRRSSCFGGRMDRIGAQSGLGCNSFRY

hNPR1-ANP complex [2] = target: T2, hNPR1-ANP complex (human, UniProt P01160 124-151, limits assumed); experiment: ELISA, 1 µM IgG; set-up: unit not given here
T2 construct: hNPR1 antigen in the presence of ANP; also called hNPR1 + 100 nM ANP
T2 sequence: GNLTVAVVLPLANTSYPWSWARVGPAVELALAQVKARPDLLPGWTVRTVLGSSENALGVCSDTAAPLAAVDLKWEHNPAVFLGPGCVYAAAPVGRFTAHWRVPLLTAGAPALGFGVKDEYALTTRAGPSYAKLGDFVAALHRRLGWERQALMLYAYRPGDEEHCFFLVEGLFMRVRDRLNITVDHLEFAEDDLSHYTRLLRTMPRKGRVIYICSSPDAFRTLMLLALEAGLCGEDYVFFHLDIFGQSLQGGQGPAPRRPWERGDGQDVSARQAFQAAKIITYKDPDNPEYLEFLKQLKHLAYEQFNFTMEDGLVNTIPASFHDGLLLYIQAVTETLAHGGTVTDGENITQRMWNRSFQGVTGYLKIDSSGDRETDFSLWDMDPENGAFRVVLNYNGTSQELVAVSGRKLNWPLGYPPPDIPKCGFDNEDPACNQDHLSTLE
T2 sequence (peptide): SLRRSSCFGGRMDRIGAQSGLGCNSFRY

rNPR1-ANP complex [3] = target: T3, rNPR1-ANP complex (rat, UniProt P01160 124-151 (human entry), limits assumed); experiment: ELISA, 1 µM IgG; set-up: unit not given here
T3 construct: rNPR1 antigen in the presence of ANP; also called rNPR1 + 100 nM ANP
T3 sequence: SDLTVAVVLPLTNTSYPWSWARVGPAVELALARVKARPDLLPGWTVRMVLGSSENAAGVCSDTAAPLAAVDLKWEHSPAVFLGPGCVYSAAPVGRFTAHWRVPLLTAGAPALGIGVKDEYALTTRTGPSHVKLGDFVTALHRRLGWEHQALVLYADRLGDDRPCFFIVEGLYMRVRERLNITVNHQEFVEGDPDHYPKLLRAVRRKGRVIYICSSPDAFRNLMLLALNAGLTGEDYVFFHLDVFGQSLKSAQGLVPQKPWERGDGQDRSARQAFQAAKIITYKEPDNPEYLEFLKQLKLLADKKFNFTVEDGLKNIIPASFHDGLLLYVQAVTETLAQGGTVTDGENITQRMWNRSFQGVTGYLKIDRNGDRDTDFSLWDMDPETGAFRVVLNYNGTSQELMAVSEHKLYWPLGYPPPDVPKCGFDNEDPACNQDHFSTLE
T3 sequence (peptide): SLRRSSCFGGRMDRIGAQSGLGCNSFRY

[4] = target: T1, human NPR1 on CHO-K1 cells in the …; experiment: flow cytometry (FL2-H) on hNPR1 CHO-K1 cells with saturating ANP, IgG titrated; control parental CHO-K1 [Cont.), panel YY04]
[5] = target: T4, human Natriuretic Peptide Receptor 1 (hNPR1) (human, UniProt P16066 33-473, limits assumed); experiment: ELISA, IgG titrated on coated antigen, fluorescence [Cont.]
T4 construct: pannings used NPR1-hFc; also called NPR1-hFc
T4 sequence: T2 sequence

rat NPR1 (rNPR1) [6] = target: T5, rat NPR1 (rNPR1) (rat, UniProt P18910 29-469, limits assumed); experiment: as above
T5 construct: Soluble antigen
T5 sequence: T3 sequence

[7] = target: T1, human NPR1 on CHO-K1 cells in the …; experiment: flow cytometry (FL2-H) on hNPR1 CHO-K1 cells with saturating ANP, IgG titrated; control parental CHO-K1 [Cont.), panel XX08]
[8] = target: T1, human NPR1 on CHO-K1 cells in the …; experiment: flow cytometry (FL2-H) on hNPR1 CHO-K1 cells with saturating ANP, IgG titrated; control parental CHO-K1 [panel XX01]
hNPR1-ANP complex [9] = target: T2, hNPR1-ANP complex; experiment: FRET ANP competition assay, IgG titrated on hNPR1 with Cy5-labeled ANP; negative values mean more ANP signal [panel XX01]
Method: The same 31 IgGs were tested for ANP competition using a Fluorescence Resonance Energy Transfer (FRET)-based assay in which the NPR1-specific antibodies competed with ANP for binding to NPR1. In this FRET based assay (see FIG. 3), Eu-labeled Streptavidin (for measurement of IgGs) or Eu-labeled anti-hFc antibody (for measurement of FabCys) was used as an energy donor, while Cy5-labeled ANP was used as an acceptor (for all measurements). The resulting fluorescent signal was decreased by ANP-competitive antibodies. The assay was performed as follows: antibodies were mixed with NPR1 and incubated for 5 minutes at room temperature. After addition of the Eu-labeled donor and incubation for 30 minutes at room temperature, the Cy5-ANP solution was added. After a further 60-minute incubation, readout was performed using a TECAN Infinite M1000 Pro using an excitation wavelength of 317 nm and an emission wavelength of 665 nm. Percentage of ANP competition was calculated according to the following formulae: […]

[10] = target: T1, human NPR1 on CHO-K1 cells in the …; experiment: flow cytometry (FL2-H) on hNPR1 CHO-K1 cells with saturating ANP, IgG titrated; control parental CHO-K1 [panel XX04]
[11] = target: human NPR1 on CHO-K1 cells in the presence of ANP (human) (UniProt P01160); experiment: flow cytometry, hNPR1 CHO-K1 cells, IgG
rNPR1-ANP complex [12] = target: T3, rNPR1-ANP complex; experiment: ELISA, IgG titrated on coated antigen with ANP (250 fold molar excess), fluorescence [Cont.]
rat NPR1 (rNPR1) [13] = target: T5, rat NPR1 (rNPR1); experiment: ELISA, IgG titrated on coated antigen, fluorescence [Cont.]; remark: listed apart in the source
[14] = target: W74R hNPR1 mutant in the presence of ANP (human) (UniProt P01160); experiment: ELISA, IgG
[15] = target: constitutively active human NPR1 mutant (W74R) (human) (UniProt P16066); experiment: ELISA, IgG

B1: YY04 (IgG format) (antibody, V domains shown)
VH: EVQLVESGGGLVKPGGSLRLSCAASGFTFSNYWISWVRQAPGKGLEWVGRIKSKTYGGTTDYAEPVKGRFTISRDDSKNTLYLQMNSLKTEDTAVYYCAREKYSIRARGHGDYGFDVWGQGTLVTVSS
VL: DIQMTQSPSSLSASVGDRVTITCRASQGISNYLAWYQQKPGKVPKLLIYAASTLQSGVPSRFSGSGSGTDFTLTISSLQPEDVATYYCQQGYHAPFTFGQGTKVEIKR
notes: also called YY04_LALA
- flow cytometry S/BG at 1 µM IgG [1]: 33 S/BG
- ELISA binding at 1 µM IgG (hNPR1-ANP complex [2]): 60
- ELISA binding at 1 µM IgG (rNPR1-ANP complex [3]): 54
- EC50 (read off the curve) [4]: ~0.2 nM

B2: XX08 (antibody, V domains shown)
VH: EVQLLESGGGLVQPGGSLRLSCAASGFTFNTHYIHWVRQAPGKGLEWVSSIGGQGGMTLYADSVKGRFTISRDNSKNTLYLQMNSLRAEDTAVYYCARERGYVYYHMFDPWGQGTLVTVSS
VL: DIVLTQSPATLSLSPGERATLSCRASQSITRNYLAWYQQKPGQAPRLLIYGASSRATGIPARFSGSGSGTDFTLTISSLEPEDFAVYYCQQHSMYPRTFGQGTKVEIKR
notes: x axis reads IgG conc; [nM]; also called XX08 (IgG format)
- EC50 (read off the curve) [5]: ~20 nM
- EC50 (read off the curve) (rat NPR1 (rNPR1) [6]): ~20 nM
- EC50 (read off the curve) [7]: ~2 nM

B3: XX01 (IgG format) (antibody, V domains shown)
VH: B2 VH with G52S, G53S, Q54S, G56Q, M57S, L59Y
VL: DIVLTQSPATLSLSPGERATLSCRASQSITRNYLAWYQQKPGQAPRLLIYGASSRATGIPARFSGSGSGTDFTLTISSLEPEDFAVYYCQQHSMYPRTFGQGTKVEIK
- EC50 (read off the curve) [8]: ~0.8 nM
- EC50 (read off the curve) (hNPR1-ANP complex [9]): ~0.1 nM

B4: XX04 (IgG format) (antibody, V domains shown)
VH: QVQLLESGGGLVQPGGSLRLSCAASGFTFSSYWMNWVRQAPGKGLEWVSAISSDGSYTYYADSVKGRFTISRDNSKNTLYLQMNSLRAEDTAVYYCARDRYSMIYSYGAGAFDYWGQGTLVTVSS
VL: DIQMTQSPSSLSASVGDRVTITCRASQGISSYLAWYQQKPGKAPKLLIYTASTLQSGVPSRFSGSGSGTDFTLTISSLQPEDFATYYCQQEWVKPRTFGQGTKVEIK
- EC50 (read off the curve) [10]: ~2 nM

B5: WW06 (IgG format) (antibody, V domains shown)
VH: QVQLVQSGAEVKKPGESLKISCKGSGYSFTSYWIAWVRQMPGKGLEWMGRIDPDNSYTRYSPSFQGQVTISADKSISTAYLQWSSLKASDTAMYYCARWLSPGYALGEQPAGMDHWGQGTLVTVSS
VL: DIVLTQPPSVSGAPGQRVTISCTGSSSNIGAGYAVHWYQQLPGTAPKLLIYSNNKRPSGVPDRFSGSKSGTSASLAITGLQAEDEADYYCQSYDLQKSSRVFGGGTKLTVLG
notes: also called WW06_LALA
- flow cytometry S/BG at 2 µM IgG [11]: 1.1 S/BG
- binding result (rNPR1-ANP complex [12]): no binding (tested: 1000 nM)
- binding result (rat NPR1 (rNPR1) [13]): no binding (tested: 1000 nM)
- EC50 [14]: 0.8 nM
- EC50 [15]: 0.9 nM
